Results: the supplement of paper PMC12042874
± gives the uncertainty stated by the source.

Experiment: amyloid nucleation score (Sup35N fusion, yeast selection) (log enrichment); library NNK3; higher = more nucleation; inactive = no reads after selection
Summary of the method: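 Psi-negative yeast expressed Sup35N fused to peptides of 20 random codons. They were induced 24 hours with 100 μM copper sulfate, grown 7 days at 30°C without adenine and uracil, and their plasmid inserts from input and output were Illumina-sequenced. The nucleation score is the DiMSum log enrichment of output over input reads, centred on the mode score of non-aggregating sequences. Sequences with under 100 input reads were excluded.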

Substance | amyloid nucleation score
VYNIDTRNISFMSASNRTLS | inactive
HSVIIAAMLSEISVSGLISG | inactive
CLCSDTNVK | inactive
NYHTFSYCI | inactive
EVFLIIIVKMVNGLSRESRC | inactive
PNAIILVQYTYIVGMRGGHS | 1.11 ± 0.08
GFFSLYVVE | inactive
MCVYITYLNLWSDNSLRDRT | 2.23 ± 0.061
RPFSPVVLMVYGKKRRTWTR | inactive
SVVDRGASRFKRTVNVSNKA | inactive
VWLRGFQLGMDDFLWRVSGC | inactive
NATIFFMQ | 0.605 ± 0.24
CMVFMYQILVPAWALRSYIL | inactive
DRCCLLHYT | inactive
YSKCNRIFFTEDLF | -0.295 ± 0.8
NWFRMFIGFNSCAIRRIIWD | inactive
SDRLS | inactive
QQPTYKYDDDKNFDSYWLAN | inactive
AIWLCCQLLLM | 2.63 ± 0.066
ILIWRSGCYWTSPTEGVFRF | 0.572 ± 0.2
YVFGNWLLCFEHTKMH | 1.1 ± 0.14
VVFWNFTRMLCLG | inactive
RVYVLLLNGQPFCRKYRL | inactive

Substance | amyloid nucleation score
FSMSWTVDMKE | inactive
RGFLVRWAPFCLGFGSTLND | inactive
RDPDGRIYMYGLDVIQYVTN | inactive
MLNWPIDRDSWRPGFDMWLG | -0.426 ± 0.6
APAEIFDLLKSMNGTLCRMG | inactive
DGCGCKWTGACAMLSCHMYL | 1.41 ± 0.091
WSWRDLEGQNSGKEAVILEL | inactive
LSGLESVRSSYDWVVGGWIS | -0.329 ± 1.3
DMSSSGITGTEFRCNYYHEY | inactive
MFNILADKGSRARSERASL | inactive
TSFGMSTPCQAFARSVDDRG | inactive
ISCIGPFCSTIPLIKLNLIE | 1.3 ± 0.1
GFPPCSTRTIQLTWHSSNV | 0.37 ± 0.17
IMVWLRARSITYNQVDDRGS | inactive
SRLNWSRRWSLVSQNARRTS | inactive
FMWCYMKYCAVHAFDLSWKV | inactive
RGQCVPDAGQVRNGTCMRV | inactive
WNNYI | inactive
FCFKSLALELPIQKY | inactive
MSYVSFKFVERSMGNNSGGI | -0.137 ± 0.64
NYRWTWPMPTQEALTPNSDS | inactive
SFGIGSI | inactive
TRLSSFRKIKEIYLLTQWKP | inactive

Substance | amyloid nucleation score
VGGFKTILSIRRAAKCLCVG | inactive
FNETFYGKVGDILISLCRVL | inactive
LEMTSCTNLLHKRELVSWHR | inactive
TNNEDKFWRVVLNLGTVTSD | inactive
HDTPFMCV | inactive
INWYIHFRPLWQGFR | inactive
EVMLYRQHHDVRHEHSGYLT | inactive
NDGPKVARMGSVR | inactive
YKFFGDLKVAYFGKVKIE | inactive
HIVSSAMSVT | inactive
SFSSLQFVNIATPHY | 0.42 ± 0.2
NTSAPSNATAAFKAITN | inactive
RLVWGCCLLDTCVVEQGSGV | 2.78 ± 0.076
SGWKQSGS | inactive
HVVGQDIRV | inactive
LFHSYLIHRLFPSNHSNFRM | inactive
GFVIYLNVALLVRSNINRVC | inactive
YHCNGPGSLWSTNLACRSME | inactive
SFVPDLRARVMSCSGCSTLG | inactive
EPCSLPTSGPMGMVGNIKSG | inactive
ILRHKCDEQPVRVSGHCFA | inactive
HICIMNMLRFRCIWIPIFYM | inactive
FMPPFASN | inactive

Substance | amyloid nucleation score
FYITFFECD | inactive
CPGVHWHDVK | inactive
LRMGVNILLAMGCFSAYPGE | 0.171 ± 0.39
FVAHCWQSIY | inactive
MSVTMMAKWTTLILGIGTGM | inactive
RSTTTMEYWFSCAVYSPKSV | 0.682 ± 0.12
LSRCVPNDVGKAYMMKEKRK | inactive
SWMYEFGSGTVKGGGKSELD | inactive
CIDQTTLKHTLDNCLIFF | inactive
IKTGYSTHDPNHVDNTIRSR | inactive
QLRICTR | -0.358 ± 1.1
YRDRYLDPLWAD | inactive
RHNVRCYCLGLMPNAPVDKL | inactive
CSMVSWLIHCANMHRKTSTS | inactive
AKICLFV | inactive
ACKLIEFSSQQVFVGFGVHA | inactive
HNISAIYDRNRF | inactive
PRASYMGRSKL | inactive
AYIMDSSWWV | inactive
VGLLVMSVGIERTLWE | inactive
YGLHTGKSKALQQRIVW | inactive
PFCVMDLSIKWGNMYYFLQT | inactive
WGTRLWIVVQIGQEYVLLVR | -0.234 ± 1.1

Substance | amyloid nucleation score
DIQTLPKLDLVFFVWAILEL | inactive
LDIFKISDTWMFDGQLTHLL | inactive
IHCGACYSACWVRLGAWMTC | inactive
EGPGDEIFVSG | inactive
RMCKTATVIHYGLFINLTEF | inactive
HCFTVWWEWP | inactive
NVFLSRFMVMRKMVWFTEF | inactive
LIEWYFDN | inactive
NTWRYN | inactive
QSNEASCSGCLISKVLKNDN | inactive
FSPVSQYWMKGFTYTGNRAR | inactive
DPRRGIPIKPQMINTVQM | inactive
HVLNEWKSNTGLVVSSAWFC | 1.43 ± 0.087
IMVVQYTWDWPGCCWIRWYL | inactive
PCLSMRSNLRGYTWWSVGGY | 1.11 ± 0.14
FLILVGLGRIDLMGTIIKKR | inactive
MDRRNGNRN | inactive
GSKESPKRYSSSALASVGVI | inactive
DRNCRLIHYFIQ | inactive
LKWCFFCCN | 2.54 ± 0.065
LQWVRLVSRVQSTDCNLGAG | inactive
SRCPMADCMRKPRGGCSVGR | inactive
GLFCLKFKPTQGVPRQKLL | inactive

Substance | amyloid nucleation score
RVGTMLHGDWAYCHR | inactive
PNVLLIRVLIERSCKVGWNS | inactive
RDSRRETKTNIWIVRYTLW | inactive
FNTPDRAPLLATCAVHANLH | inactive
HEMAYVVPTLVYYVYNTNSR | -0.076 ± 0.66
SFCFFRVTLSCTC | inactive
FDGFLNFVITSRSNVF | inactive
FFYSVLCLLRAVLVDSNLGW | inactive
WMFGQSIAALFSWGTVCGLV | inactive
AQGKSRPYPLSNSPSGVRRS | inactive
VFSDHVLSF | inactive
IRMIDWILLDAVT | inactive
VLDFRRPRNISRS | inactive
TRYPFQWLLRVGWKGAHLGM | inactive
LHHMHYSLKGS | inactive
PELCQCSHCNLLFLWTYYIA | -0.052 ± 0.98
SPVMPMMFGNKRVPLITDLR | inactive
CLRDCKTPDSATHTRAINGL | inactive
KIILEIAMRTSLCRPTSSYL | 1.03 ± 0.099
YLIYDRLSIQPDSSHHLVV | -0.124 ± 0.62
LKHCQMGVVTSSYLMWLVGT | inactive
YIMSNLFGGNNLFGG | inactive
SWTCRFCHMSFIGML | 0.251 ± 0.43

Substance | amyloid nucleation score
AFPTVLLHWRN | inactive
ENSIVADTGPAV | inactive
VQLLDRNEIFGVWGSIELLQ | inactive
AGKDSPGTDHGGGKNNVRV | inactive
DITRGCGVKDRKVVPASGLA | inactive
SRPVVRVINYYELGHIKVMS | inactive
TQFTLCTIHSVLCVNA | 2.06 ± 0.078
VLLSRMIYALPGYSVL | 1.93 ± 0.075
MCEGLEFLNTK | inactive
KAFFESMFWV | inactive
PSDDYGHLVWLTICCNCLD | 1.6 ± 0.079
CYLGSHSFSAYCGQLFIFSV | inactive
FFVQSGIIEELYTW | 0.173 ± 0.31
FLCSTSLFVLVLMLTLTNTP | inactive
SRFGMHKDTKMWSSRCRCVR | inactive
NSTYSSF | inactive
IKFHW | inactive
NCRVCCRYVNSSPDV | -0.974 ± 1.7
FLLVSLAA | inactive
NKRGNCVEKDDCFVMYEWNM | inactive
FYLFIVVRMVVLVTDVIVVG | inactive
